The sequences below were run on Escherichia coli TOP10 (assay: shrunken log2 fold change of peptide-encoding DNA abundance (4.5 h post-induction vs induction); higher = less antimicrobial activity (less host growth inhibition)). Settings: time post-induction: 4.5 h; library: site-saturation at positions 5, 18, 19, 20.
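Further: peptides expressed intracellularly from a pBAD plasmid library in pooled LB shake-flask culture, induced with 0.3% L-arabinose, DNA abundance read by NGS, three biological replicates, DESeq2 with apeglm shrinkage.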

Row | Sequence | shrunken log2 fold change
1 | RRIRTRPPRLPRPRPRPMKMPRP | 0.0821
2 | RRIRHRPPRLPRPRPRPLQAPRP | -0.279
3 | RRIRYRPPRLPRPRPRPLQTPRP | 0.0147
4 | RRIRRRPPRLPRPRPRPFSGPRP | -0.32
5 | RRIRKRPPRLPRPRPRPVRCPRP | 0.746
6 | RRIRWRPPRLPRPRPRPCAIPRP | 0.027
7 | RRIRGRPPRLPRPRPRPETRPRP | 0.109
8 | RRIRKRPPRLPRPRPRPFYVPRP | -0.0997
9 | RRIRYRPPRLPRPRPRPLQHPRP | -0.688
10 | RRIRERPPRLPRPRPRPSSVPRP | -0.306
11 | RRIRGRPPRLPRPRPRPQGPPRP | 0.224
12 | RRIRKRPPRLPRPRPRPIMNPRP | -0.119
13 | RRIRWRPPRLPRPRPRPPELPRP | 0.38
14 | RRIRWRPPRLPRPRPRPDCCPRP | 0.777
15 | RRIRKRPPRLPRPRPRPCANPRP | 0.232
16 | RRIRYRPPRLPRPRPRPTLVPRP | -0.0641
17 | RRIRRRPPRLPRPRPRPYRWPRP | -0.356
18 | RRIRSRPPRLPRPRPRPWNQPRP | 0.0379
19 | RRIRSRPPRLPRPRPRPVLCPRP | -0.00306
20 | RRIRKRPPRLPRPRPRPQGDPRP | 0.0739

Row | Sequence | shrunken log2 fold change
21 | RRIRLRPPRLPRPRPRPIDRPRP | -0.241
22 | RRIRTRPPRLPRPRPRPMLHPRP | 0.111
23 | RRIRQRPPRLPRPRPRPCASPRP | -0.0156
24 | RRIRLRPPRLPRPRPRPFCKPRP | -0.101
25 | RRIRKRPPRLPRPRPRPITVPRP | 0.0944
26 | RRIRYRPPRLPRPRPRPWYDPRP | -0.109
27 | RRIRNRPPRLPRPRPRPTGIPRP | 0.0288
28 | RRIRTRPPRLPRPRPRPYFNPRP | -1.03
29 | RRIRNRPPRLPRPRPRPWNHPRP | -0.612
30 | RRIRGRPPRLPRPRPRPIVCPRP | 0.356
31 | RRIRWRPPRLPRPRPRPGFSPRP | 0.138
32 | RRIRNRPPRLPRPRPRPVWAPRP | 0.599
33 | RRIRTRPPRLPRPRPRPFLCPRP | -0.978
34 | RRIRHRPPRLPRPRPRPALGPRP | -0.0558
35 | RRIRCRPPRLPRPRPRPYFPPRP | -0.513
36 | RRIRNRPPRLPRPRPRPPGRPRP | 0.769
37 | RRIRMRPPRLPRPRPRPWWCPRP | 0.0647
38 | RRIRQRPPRLPRPRPRPLFQPRP | 0.866
39 | RRIRERPPRLPRPRPRPEETPRP | -0.0248
40 | RRIRVRPPRLPRPRPRPKFIPRP | -0.286

Row | Sequence | shrunken log2 fold change
41 | RRIRWRPPRLPRPRPRPAHKPRP | 0.344
42 | RRIRCRPPRLPRPRPRPDLSPRP | 0.0851
43 | RRIRGRPPRLPRPRPRPFLYPRP | -0.11
44 | RRIRNRPPRLPRPRPRPVKRPRP | 0.0962
45 | RRIRPRPPRLPRPRPRPNLSPRP | -0.168
46 | RRIRDRPPRLPRPRPRPTHNPRP | -0.00516
47 | RRIRNRPPRLPRPRPRPLGGPRP | 0.105
48 | RRIRTRPPRLPRPRPRPASTPRP | -0.0927
49 | RRIRGRPPRLPRPRPRPRPPPRP | 1.19
50 | RRIRDRPPRLPRPRPRPYRFPRP | -0.0178
51 | RRIRWRPPRLPRPRPRPDPTPRP | 0.691
52 | RRIRQRPPRLPRPRPRPHEDPRP | 0.0107
53 | RRIRWRPPRLPRPRPRPCKCPRP | -0.0392
54 | RRIRCRPPRLPRPRPRPIRQPRP | -0.0914
55 | RRIRVRPPRLPRPRPRPGTDPRP | -0.117
56 | RRIRSRPPRLPRPRPRPCVFPRP | -0.112
57 | RRIRDRPPRLPRPRPRPEQMPRP | 0.861
58 | RRIRNRPPRLPRPRPRPDCMPRP | 0.113
59 | RRIRERPPRLPRPRPRPWWDPRP | -0.0282
60 | RRIRYRPPRLPRPRPRPMKDPRP | -0.317

Source: the supplement of paper PMC9112550, “Optimization of the antimicrobial peptide Bac7 by deep mutational scanning” (BMC Biology, 2022)
